This assay addresses T1, recombinant soluble human B7-H3 ectodomain protein (Homo sapiens, UniProt Q5ZPR3).
T1 construct: incubated with 3 μM of recombinant soluble human B7-H3 ectodomain protein
T1 sequence (Q5ZPR3 29-466 limits assumed): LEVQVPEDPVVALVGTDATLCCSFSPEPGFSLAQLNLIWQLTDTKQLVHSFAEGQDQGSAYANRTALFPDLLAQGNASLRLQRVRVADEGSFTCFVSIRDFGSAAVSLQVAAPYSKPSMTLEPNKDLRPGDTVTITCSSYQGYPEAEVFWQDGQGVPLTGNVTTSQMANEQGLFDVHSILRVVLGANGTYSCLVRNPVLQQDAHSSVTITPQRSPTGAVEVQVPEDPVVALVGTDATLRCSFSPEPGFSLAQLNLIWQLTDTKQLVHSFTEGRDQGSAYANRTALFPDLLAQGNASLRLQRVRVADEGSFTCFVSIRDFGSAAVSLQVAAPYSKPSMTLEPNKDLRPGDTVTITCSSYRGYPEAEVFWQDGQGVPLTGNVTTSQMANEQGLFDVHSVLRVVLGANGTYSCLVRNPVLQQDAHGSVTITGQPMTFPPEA
The assay is described as follows: Streptavidin bead binding to recombinant soluble human B7-H3 ectodomain by flow cytometry. The settings on record: ligand immobilized to streptavidin magnetic beads; 3 μM recombinant soluble human B7-H3 ectodomain. The source says: FIG. 9. Production and validation of ABYB7-H3.(A) Left panel: Commassie Blue staining of SDS-PAGE showing high purity and expected size (7,490 Da) of finalized ABYB7-H3 produced in E. Coli. Right panel: Mass spectrometric analysis of ABYB7-H3 showing a mass-to-charge peak (m/z=7,546) corresponding to ABY molecular weight. A doubly charged peak (m/z=3763) is also present. Amino acid sequence of ABYB7-H3 (SEQ ID NO:28) is shown on the bottom. (B) Flow cytometry of biotin-ABYB7-H3 conjugated streptavidin-microbeads complex showing binding to soluble recombinant B7-H3 (3 μM) as detected by APC conjugated anti-B7-H3 antibody. Unconjugated beads (negative control) and anti B7-H3 antibody (AB) conjugated beads (positive control) were also tested for binding to soluble B7-H3 antigen.
Production of ABYB7-H3. Development of a B7-H3-binding ligand from an ABY yeast display library is described in Example 1. […] ABYB7-H3 ligand was recombinantly expressed in E. coli, purified, and functionalized with 1:1 molar ratio of biotin. […] In order to confirm binding specificity of recombinantly produced ABYB7-H3 to its target, biotinylated-ABY was immobilized to streptavidin- magnetic beads and incubated with 3 μM of recombinant soluble human B7-H3 ectodomain protein.
(In general: Flow cytometry measures light scatter and fluorescence of single cells or particles in a stream.)

B1: anti- B7-H3 antibody: biotinylated anti-B7-H3 antibody conjugated to beads as positive control (protein)
VHH: QVQLVESGGGLVQPGGSLRLSCAASGFTFSSYWMYWVRQTPGKGLEWVSTINRDGSATWYADSVKGRFTISRDNAKNTGYLQMNSLKPDDTAVYYCVSDPDNYSSDEMVPYWGQGTQVTVSS
On to B1, for which the “binding to soluble B7-H3” value came to 81%.

The record behind these values is patent US12274759B2, “Affibody proteins specific for B7-H3 (CD276)” (THE BOARD OF TRUSTEES OF THE LELAND STANFORD JUNIOR …, priority 2018, dated 2025).
